According to patent publication US20160215020A1 (published 2016):

Biological target: complement component C3 (human) (human, UniProt P01024 23-1663)
Test: cell-based or functional assay

B1: (CA28-AEEAc)8-PEG40k (peptide)
peptide: ICVWQDWGAHRCTK
modifications: N-terminal acetyl; (1Me)Trp at position 4; disulfide Cys2-Cys12; AEEAc between Thr13 and Lys; C-terminal amide; Lys side chain coupled to an arm of an eight-arm 40 kD PEG (NOF SUNBRIGHT HGEO-400GS)
IC50, classical complement inhibition assay (C3b deposition ELISA), as a function of CA28 moiety concentration: 1.93 µM
